# Data taken from patent publication US20190309056A1 (VIB VZW, published 2019).
# B1: anti-MIF ISVD C10 (VHH)
# VHH: EVQLVESGGGLVQAGGSLRLSCAASGRTSSIVAIGWFRQAPGKEREFVSNIGWKFGSTVYVDSVKGRFTISKDNAKNTVYLQMNSLKPEDTAVYRCAARSDGRVYDSWGQGTQVTVSS
# notes: Family II; Expressed from pAX100, purified by IMAC
# B2: anti-MIF ISVD E10 (VHH)
# VHH: EVQLVESGGGSVQAGDSLRLSCAASGRTLSNSIMGWFRQAPGKEREFVANINWSGTSRLYADSVKGRFTISRDNTKSTVYLQMNSLKPEDTAIYYCAARSSTMSATDYWGQGTQVTVSS
# notes: Family VII; Monovalent llama VHH expressed in E. coli from pAX100 and purified by IMAC (His-Trap) and gel filtration; also called Nb E10; monovalent E10
# B3: anti-MIF ISVD D4 (VHH)
# VHH: KVQLVESGGGLVQDGGSLRLSCAASGRTASIQVMGWFRQAPGKEREFVGNIGWNYGLTLYPDSVKGRFTISRDNAKNTVYLQMNNLKPEDTAVYYCAARIGTTTYDYWGQGTQVTVSS
# notes: Family III; Expressed from pAX100, purified by IMAC
# B4: anti-MIF ISVD A2 (VHH)
# VHH: EVQLVESGGGLVQDGGSLRLSCAASGRTASIQVMGWFRQAPGKEREFVGNIGWNYGLTLYADPVKGRFTISRDNAKNTVYLQMNNLKPEDTAVYYCAARIGTITYDYWGQGTQVTVSS
# notes: as for B3
# B5: anti-MIF ISVD D2 (VHH)
# VHH: EVQLVESGGGLVQDGGSLRLSCAASGRTASIHTMGWFRQAPGQERGFVGNIGWNYGLTLYADSVKGRFTISRDNAKNTVYLQMNNLKPEDTAVYYCAARIGTTPYDYWGQGTQVTVSS
# notes: as for B3
# B6: anti-MIF ISVD F10 (VHH)
# VHH: EVQLVESGGGLVQDGGSLRLSCAASGRTASIQVMGWFRQAPGKEREFVGNIGWNYGLTLYPDSVKGRFTISRGNAKNAVYLQMNNLKPEDTAVYYCAARIGTTTYDYWGQGTQVTVSS
# notes: as for B3
# B7: anti-MIF ISVD H5 (VHH)
# VHH: EVQLVESGGGLVQPGGSLRLSCVASGFTFRTYAMSWVRQAPGKGSEWVSTINNGGGVTGYADSVEGRFTISRDNAKNTLYLQMNSLKPEDTAVYYCAKGTSRGQGTQVTVSS
# notes: Family IV; Expressed from pAX100, purified by IMAC
# B8: anti-MIF ISVD B5 (VHH)
# VHH: EVQLVESGGGLVQAGGSLRLSCAASGRSFSNYIMGWFRQAPGKEREFVANISWNYGTTFYADSVKGRFTISGDSAKNTVYLQMTSLKPEDTAVYYCAARPVRGGRNFDYWGQGTQVTVSS
# notes: Family I. Expressed from pAX100, purified by IMAC
# B9: anti-MIF ISVD D12 (VHH)
# VHH: EVQLVESGGGLVQAGGSLRLSCAASGRTISSYIVGWFRQAPGKEREFVANIGWSGSMPLYADSVKGRFTIFRDNAKNTVYLEMNKLKPEDTAVYYCAARGAGQLTNDYWGQGTQVTVSS
# notes: Family VI; Expressed from pAX100, purified by IMAC
# B10: anti-MIF ISVD E5 (VHH)
# VHH: EVQLVESGGGLVHAGGSLRLSCAASGRTFSSYFMGWFRQAPGKAREFVANINFSGGTTVYASSVKGRFTISRDNSKNTVYLQMNSVKPEDTAVYYCVARGLTQDYDYWGQGTQVTVSS
# notes: Family V. Expressed from pAX100, purified by IMAC; also called Nb E5
# B11: anti-MIF ISVD H9 (VHH)
# VHH: EVQLVESGGGLVHAGGSLRLSCAASGRTSSTYFMGWFRQAPGKAREFVANINFSGGTTVYASSVKGRFTISRDNSKNTVYLQLNSVKPEDTAVYYCSARGLNQEYDFWGQGTQVTVSS
# notes: Family V. Expressed from pAX100, purified by IMAC
# How the values were obtained:
# [1] = molecular target: T1, recombinant human Macrophage Migration Inhibitory Factor (MIF 2-115) (human, UniProt P14174 2-115); assay: SPR (BIAcore T200), rhMIF immobilised on CM5 chip, 1:1 Langmuir model
# T1 construct: rhMIF bought from R&D Systems; The background describes MIF as a homotrimer but also as monomer, dimer or higher oligomers; In the cell assays (THP-1, human PBMC) the MIF is the cells' own; also called rhMIF; human MIF
# Procedure: Surface plasmon resonance (SPR) experiments were performed on a BIAcore T200 system (GE Healthcare). Recombinant mouse MIF (rmMIF) or rhMIF (R&D systems) was immobilized on a CM5 chip (GE Healthcare). Briefly, the carboxylated dextran matrix was activated by injection of 0.2 M N-ethyl-N′-(3-[…]) carbodiimide (EDC) and 0.05 M N-hydroxysuccinimide (NHS) at a flow rate of 5 μl/min for 7 min. A rmMIF solution of 5 μg/ml prepared in coupling buffer (50 mM sodium acetate pH 4.0) was subsequently injected until 200 R.U. was immobilised. Next, the surface immobilisation was blocked by injection of 1 M ethanolamine hydrochloride for 7 min. As a reference, the surface in another flow cell was used and treated only with EDC, NHS, and ethanolamine. Data for the rmMIF-ISVD interaction were collected in the format of a kinetic titration (27). […] Analyte injections were performed with association phases of 180 s and a dissociation phase of 600 s. This was followed by 5 pulses of 15 μl regeneration buffer (HBS+100 mM NaOH). Prior to data analysis, reference and zero concentration data were subtracted from the sensorgrams. The data were analyzed with a 1:1 Langmuir binding model (27). Data for the rhMIF-ISVD interaction were collected as described elsewhere (28) and analyzed with a 1:1 Langmuir binding model.
# [2] = molecular target: T1, recombinant human Macrophage Migration …; assay: SPR (summary in the discussion)
# T1 sequence (P14174 2-115): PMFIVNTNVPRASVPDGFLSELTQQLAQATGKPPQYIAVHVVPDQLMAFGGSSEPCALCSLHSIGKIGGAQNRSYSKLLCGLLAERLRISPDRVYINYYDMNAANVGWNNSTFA
Kd [1] [nM],binding result [2],Binder
41.2,–,B1
64.5,–,B2
35,–,B3
2.96,–,B4
16.5,–,B5
–,binds,B6
27.5,–,B7
37.8,–,B8
166,–,B9
9.41,–,B10
80.3,–,B11
